Values of other authors, collected in PMC11391413.
pKd: −log10 of the molar value. Like-named read-outs stand apart in the source and are kept apart here.

How the values were obtained:
[1] = molecular target: SOS1 S7 PRM (Homo sapiens) (UniProt Q07889); experiment: NMR
[2] = molecular target: SOS1 S10 PRM (Homo sapiens) (UniProt Q07889); experiment: NMR
[3] = molecular target: SOS1 S8 PRM (Homo sapiens) (UniProt Q07889); experiment: NMR
[4] = molecular target: SOS1 S4 PRM (Homo sapiens); experiment: NMR
SOS1 S4 (Homo sapiens) [5] = molecular target: SOS1 S4 (Homo sapiens)
SOS1 S2 (Homo sapiens) [6] = molecular target: SOS1 S2 (Homo sapiens)
SOS1 S2 (Homo sapiens) [7] = molecular target: SOS1 S2 (Homo sapiens); remark: listed apart in the source
SOS1 S4 (Homo sapiens) [8] = molecular target: SOS1 S4 (Homo sapiens); remark: listed apart in the source

GRB2 CSH3, sequence (P62993 156-215): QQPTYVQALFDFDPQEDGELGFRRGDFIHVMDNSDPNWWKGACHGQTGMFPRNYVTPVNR
GRB2 NSH3, sequence (P62993 1-58): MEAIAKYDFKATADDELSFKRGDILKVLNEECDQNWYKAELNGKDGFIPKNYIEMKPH

| pKd (SOS1 S1 (Homo sapiens)) | pKd [1] | pKd [2] | pKd [3] | pKd [4] | pKd (SOS1 S4 (Homo sapiens) [5]) | pKd (SOS1 S2 (Homo sapiens) [6]) | pKd (SOS1 S2 (Homo sapiens) [7]) | pKd (SOS1 S4 (Homo sapiens) [8]) | Substance |
| --- | --- | --- | --- | --- | --- | --- | --- | --- | --- |
| 3.14 | 3.24 | 4.15 | 3.68 | 4.43 | 4.43 | 3.60 |  |  | GRB2 NSH3 (from UniProt P62993) |
|  |  | 3.88 | 3.40 | 3.85 |  |  | 3.36 | 3.85 | GRB2 CSH3 (from UniProt P62993) |
